{"source": "patent US20170190781A1", "about": "(Kyowa Kirin, published 2017)", "binders": {"B1": {"name": "anti-DR3 monoclonal antibody 142S38B Fab fragment (Fab, V domains shown)", "VH": "EVQLLESGGGLVQPGGSLRLSCAASGFTVSRYAMSWVRQAPGKGLEWVSAISDSGGRTYYADSVMGRFTISRDTSKNTLYLQMNSLRAEDTAVYFCAKEFGDYLDYWGQGTLVTVSS", "VL": "EIVLTQSPATLSLSPGERATLSCRASQSVSSYLAWYQQKPGQAPRLLIYDASNRATGIPARFSGSGSGTDFTLTISSLEPEDFAVYYCQQRSNWWTFGQGTKVEIK", "notes": "Fab made with the Pierce Fab Preparation Kit from antibody 142S38B; Human kappa light chain; Only the variable domains are written"}, "B2": {"name": "anti-DR3 monoclonal antibody 142A2 Fab fragment (Fab, V domains shown)", "VH": "QVQLQQSGPGLVKPSQTLSLTCAISGDSVSGYSAAWNWIRQSPSRGLEWLGRTYYRSKWYNDYAVSVKSRITINPDTSKNQFSLQLNSVTPEDTAVYYCARDYYGSESYYNGGYYYYGMDVWGQGTTVTVSS", "VL": "AIQLTQSPSSLSASVGDRVTITCRASPGISSALAWYQQKPGKAPKLLMYDASSLESGVPSRFSGSGSGTDFTLTISSLQPEDFATYYCQQFNDYPLTFGGGTKVEIK", "notes": "Fab made with the Pierce Fab Preparation Kit from antibody 142A2; also called parental 142A2"}, "B3": {"name": "142A2-A51E Fab (Fab, V domains shown)", "VH": "B2 VH", "VL": "B2 VL with A51E", "notes": "Only the variable domains are written; also called A2-E"}, "B4": {"name": "142A2-A51E/L54Q Fab (Fab, V domains shown)", "VH": "B2 VH", "VL": "B2 VL with A51E, L54Q", "notes": "Only the variable domains are written; also called A2-EQ"}, "B5": {"name": "142A2-G112R Fab (Fab, V domains shown)", "VH": "B2 VH with G112R", "VL": "B2 VL", "notes": "Only the variable domains are written"}, "B6": {"name": "142A2-G112R/A51E Fab (Fab, V domains shown)", "VH": "B2 VH with G112R", "VL": "B2 VL with A51E", "notes": "Only the variable domains are written; also called A2-ER"}, "B7": {"name": "142A2-G112R/A51E/L54Q Fab (Fab, V domains shown)", "VH": "B2 VH with G112R", "VL": "B2 VL with A51E, L54Q", "notes": "Only the variable domains are written; also called A2-EQR; 142A2-EQR"}, "B8": {"name": "142A2-G112R/L54Q Fab (Fab, V domains shown)", "VH": "B2 VH with G112R", "VL": "B2 VL with L54Q", "notes": "as for B5"}, "B9": {"name": "142A2-L54Q Fab (Fab, V domains shown)", "VH": "B2 VH", "VL": "B2 VL with L54Q", "notes": "Only the variable domains are written; also called A2-Q"}, "B10": {"name": "anti-DR3 monoclonal antibody 142S38B (hybridoma supernatant) (antibody, V domains shown)", "VH": "B1 VH", "VL": "B1 VL", "notes": "Human antibody from a KM mouse hybridoma, detected with anti-human IgG-PE; Kappa light chain"}}, "key": {"[1]": {"target": "T1, recombinant human DR3-human IgG1-Fc (soluble human DR3(EC)-hG1Fc) (human)", "T1 construct": "also called huDR3-huFc; hDR3(EC)-hG1Fc", "experiment": "SPR, Fab on immobilised DR3-Fc, same as Example 5; n = 3", "protocol": "(§1) Fab antibody fragments of the above mentioned antibodies were obtained following the Pierce Fab Preparation Kit (Thermo Scientific Pierce No. 44985). All of the following manipulations were carried out using a Biacore® 3000 (manufactured by GE Healthcare Bio-Sciences). Recombinant huDR3-huFc protein was immobilized on a CM5 sensor chip (manufactured by GE Healthcare Bio-Sciences) by an amine coupling chemistry.\n(§2) In particular, the kinetic assay was carried out by immobilizing on the chip approximately 2000 resonance unit (RU) of recombinant protein, in order to achieve a medium protein immobilization level. Thereafter, the anti-DR3 antibody Fab fragments, diluted from 12 nM concentration in five steps, were allowed to run at a flow rate of 30 μL/min onto the chip for 120 seconds. The dissociation time was 300 seconds and the binding curves were measured at 25° C.\n(§3) Regeneration was performed with glycine-HCl, pH 1.5, 60 seconds. The raw data were double referenced by subtraction of the signals from a reference flow cell without captured ligand and a buffer blank. The sensorgram corresponding to each concentration was obtained. The analysis was carried out using a 1:1 Langmuir fit model, using the analysis software attached to the apparatus, Biacore® 3000 Evaluation software (manufactured by Biacore), thereby calculating an association rate constant ka [1/Ms] and a dissociation rate constant kd [1/s] for the recombinant huDR3-huFc protein."}, "[2]": {"target": "T1, recombinant human DR3-human IgG1-Fc …", "experiment": "SPR (Biacore 3000), huDR3-huFc on CM5, Fab as analyte; average KD, n = 2", "protocol": "as §1, §2\n(§4) Regeneration was performed with glycine-HCl, pH 1.5, 60 seconds. The raw data were double referenced by subtraction of the signals from a reference flow cell without captured ligand and a buffer blank. The sensorgram corresponding to each concentration was obtained. […]"}, "[3]": {"target": "T1, recombinant human DR3-human IgG1-Fc …", "experiment": "SPR (Biacore 3000), huDR3-huFc amine-coupled on CM5, Fab 12 to 0.375 nM, 1:1 Langmuir fit, 25 C; run 1", "protocol": "as §1, §2, §3"}, "[4]": {"target": "T1, recombinant human DR3-human IgG1-Fc …", "experiment": "SPR (Biacore 3000), huDR3-huFc amine-coupled on CM5, Fab 12 to 0.375 nM, 1:1 Langmuir fit, 25 C; run 2", "protocol": "as §1, §2, §3"}, "[5]": {"target": "T1, recombinant human DR3-human IgG1-Fc …", "experiment": "SPR, Fab on immobilised DR3-Fc, same as Example 5; n = 6", "protocol": "as §1, §2, §3"}, "[6]": {"target": "T1, recombinant human DR3-human IgG1-Fc …", "experiment": "SPR, Fab on immobilised DR3-Fc", "protocol": "as §1, §2, §3"}, "[7]": {"target": "T1, recombinant human DR3-human IgG1-Fc …", "experiment": "SPR, Fab on immobilised DR3-Fc, same as Example 5; n = 23", "protocol": "as §1, §2, §4"}, "[8]": {"target": "T2, death domain-deleted human DR3 (hDR3ΔDD) on CHO-K1 cells (human, UniProt Q93038 25-345)", "T2 construct": "also called CHO/DR3; human DR3-expressing CHO cells", "T2 sequence": "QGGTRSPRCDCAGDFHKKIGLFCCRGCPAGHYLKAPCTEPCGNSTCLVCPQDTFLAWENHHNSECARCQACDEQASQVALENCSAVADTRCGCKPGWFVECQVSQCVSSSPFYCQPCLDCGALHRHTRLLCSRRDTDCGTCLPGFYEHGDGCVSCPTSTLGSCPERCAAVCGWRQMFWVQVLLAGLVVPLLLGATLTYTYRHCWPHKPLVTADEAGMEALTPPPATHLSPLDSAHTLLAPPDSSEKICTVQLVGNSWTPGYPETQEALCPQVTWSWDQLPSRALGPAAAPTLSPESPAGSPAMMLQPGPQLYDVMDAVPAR", "experiment": "flow cytometry of hybridoma supernatant on human DR3-expressing CHO cells, anti-human IgG-PE", "protocol": "Supernatants of multiwell plates were screened by flow cytometric binding to human DR3-expressing CHO cells (hereinafter described as CHO/DR3, in case). Cells were incubated at 10,000/well in a 96-well round-bottom assay plate for 15 minutes at 4° C. with a neat supernatant of hybridoma. Cells were pelleted via centrifugation, and washed with 200 μL PBS/0.5% fetal calf serum. […] Cells were washed as described above, and resuspended in 200 μL PBS/0.5% fetal calf serum; >5000 events acquired on an LSR Fortessa flow cytometer (Beckton Dickinson). Results were analyzed using FlowJo (Treestar Inc.)."}}, "note": "Residue numbers refer to the chain shown, from its start. Names and notes keep the numbering of the source.", "data": [{"binder": "B1", "values": [{"measurement": "Kd", "setting": "[1]", "result": 0.13, "unit": "nM"}, {"measurement": "Kd", "setting": "[2]", "result": 0.194, "unit": "nM"}, {"measurement": "Kd", "setting": "[3]", "result": 0.225, "unit": "nM"}, {"measurement": "koff", "setting": "[3]", "result": "5.37e-05", "unit": "s⁻¹"}, {"measurement": "kon", "setting": "[3]", "result": 239000, "unit": "M⁻¹ s⁻¹"}, {"measurement": "Kd", "setting": "[4]", "result": 0.162, "unit": "nM"}, {"measurement": "koff", "setting": "[4]", "result": "5.46e-05", "unit": "s⁻¹"}, {"measurement": "kon", "setting": "[4]", "result": 337000, "unit": "M⁻¹ s⁻¹"}]}, {"binder": "B2", "values": [{"measurement": "Kd", "setting": "[5]", "result": 3.99, "unit": "nM"}, {"measurement": "Kd", "setting": "[2]", "result": 2.65, "unit": "nM"}, {"measurement": "Kd", "setting": "[3]", "result": 3.79, "unit": "nM"}, {"measurement": "Kd", "setting": "[4]", "result": 1.5, "unit": "nM"}]}, {"binder": "B3", "values": [{"measurement": "fold increase of binding affinity against parental 142A2", "setting": "[6]", "result": "~1.8", "unit": "fold"}, {"measurement": "Kd", "setting": "[5]", "result": 2.2, "unit": "nM"}]}, {"binder": "B4", "values": [{"measurement": "fold increase of binding affinity against parental 142A2", "setting": "[6]", "result": "~1.9", "unit": "fold"}, {"measurement": "Kd", "setting": "[7]", "result": 2.13, "unit": "nM"}]}, {"binder": "B5", "values": [{"measurement": "Kd", "setting": "[1]", "result": 3.19, "unit": "nM"}]}, {"binder": "B6", "values": [{"measurement": "fold increase of binding affinity against parental 142A2", "setting": "[6]", "result": "~2", "unit": "fold"}, {"measurement": "Kd", "setting": "[5]", "result": 1.96, "unit": "nM"}]}, {"binder": "B7", "values": [{"measurement": "fold increase of binding affinity against parental 142A2", "setting": "[6]", "result": "~2.2", "unit": "fold"}, {"measurement": "Kd", "setting": "[1]", "result": 1.78, "unit": "nM"}]}, {"binder": "B8", "values": [{"measurement": "Kd", "setting": "[1]", "result": 2.37, "unit": "nM"}]}, {"binder": "B9", "values": [{"measurement": "fold increase of binding affinity against parental 142A2", "setting": "[6]", "result": "~1.2", "unit": "fold"}, {"measurement": "Kd", "setting": "[1]", "result": 3.04, "unit": "nM"}]}, {"binder": "B10", "values": [{"measurement": "binding result", "setting": "[8]", "result": "binds"}]}]}
